Laboratory results taken from patent publication US20070105925A1.

How the values were obtained:
[1] = target: human recombinant (hr) ACE2 (human) (UniProt Q9BYF1); experiment: cell-based or functional assay
[2] = system: T1, 7-methoxycoumarin-Tyr-Val-Ala-Pro-(2,4-dinitrophenyl)Lys
T1 sequence: YVAPK

human recombinant (hr) ACE2 (human), sequence (Q9BYF1 18-740 limits assumed): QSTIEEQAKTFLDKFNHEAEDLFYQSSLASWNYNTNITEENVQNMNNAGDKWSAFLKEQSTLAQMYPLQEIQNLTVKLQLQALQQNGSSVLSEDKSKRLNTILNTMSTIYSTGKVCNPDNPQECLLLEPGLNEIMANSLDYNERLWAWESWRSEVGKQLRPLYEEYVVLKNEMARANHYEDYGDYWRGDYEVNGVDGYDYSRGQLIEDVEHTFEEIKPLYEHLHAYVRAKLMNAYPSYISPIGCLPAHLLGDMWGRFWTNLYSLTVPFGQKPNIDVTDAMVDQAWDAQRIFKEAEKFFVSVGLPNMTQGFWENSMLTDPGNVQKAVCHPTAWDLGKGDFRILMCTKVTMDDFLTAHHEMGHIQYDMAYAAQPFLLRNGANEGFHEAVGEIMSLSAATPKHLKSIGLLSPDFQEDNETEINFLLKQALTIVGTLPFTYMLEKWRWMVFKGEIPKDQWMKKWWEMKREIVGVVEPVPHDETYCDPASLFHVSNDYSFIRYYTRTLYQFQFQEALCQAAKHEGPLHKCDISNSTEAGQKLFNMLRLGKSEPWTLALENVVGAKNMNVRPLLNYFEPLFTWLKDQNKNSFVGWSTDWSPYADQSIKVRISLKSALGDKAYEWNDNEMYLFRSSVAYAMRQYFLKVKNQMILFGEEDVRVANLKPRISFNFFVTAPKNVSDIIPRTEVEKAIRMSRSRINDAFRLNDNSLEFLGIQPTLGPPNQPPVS

| Substance | quenching of the fluorescence signal from cleavage of 7-Mca-YVADAPK(Dnp) by hrACE2 (enzyme inhibition) [1] | fluorescence from cleavage of the substrate, hACE2 spiked into kidney extract of an ACE2-knockout mouse [2] |
| --- | --- | --- |
| DX600 (peptide) | 100 nmol/L | – |
| human recombinant (hr) ACE2 | – | the fluorescence signal was recovered in a dose dependent manner, with a linear relationship (r=0.990, p<0.001) in the range of 0.4 to 50 ng ACE2 protein/well |
